Measured values reported in the Immune Epitope Database (IEDB).

Assays:
[1] = target: HLA-B*51:01; test: IEDB peptide-MHC binding, purified MHC/direct/fluorescence; filed as Kd, often an IC50 or EC50 that approximates it; ≥ and ≤ were set here for values at or beyond the usual limits of such assays; conditions: source organism: Giardia lamblia ATCC 50803
[2] = target: HLA-C*05:01; test: as above
[3] = target: HLA-B*15:42; test: IEDB peptide-MHC binding, purified MHC/competitive/fluorescence; filed as Kd, often an IC50 or EC50 that approximates it; ≥ and ≤ were set here for values at or beyond the usual limits of such assays; conditions: source organism: Giardia lamblia ATCC 50803
[4] = target: HLA-B*83:01; test: as above; conditions: source organism: Giardia lamblia ATCC 50803
[5] = target: HLA-B*45:06; test: as above; conditions: source organism: Giardia lamblia ATCC 50803
[6] = target: HLA-C*03:03; test: IEDB peptide-MHC binding, purified MHC/direct/fluorescence; filed as Kd, often an IC50 or EC50 that approximates it; ≥ and ≤ were set here for values at or beyond the usual limits of such assays
[7] = target: HLA-C*07:02; test: as above; conditions: source organism: Mycobacterium tuberculosis variant bovis BCG str. Pasteur 1173P2
[8] = target: HLA-B*46:01; test: IEDB peptide-MHC binding, purified MHC/competitive/fluorescence; filed as Kd, often an IC50 or EC50 that approximates it; ≥ and ≤ were set here for values at or beyond the usual limits of such assays; conditions: source organism: Mycobacterium tuberculosis variant bovis BCG str. Pasteur 1173P2
[9] = target: HLA-B*15:17; test: IEDB peptide-MHC binding, purified MHC/direct/fluorescence; filed as Kd, often an IC50 or EC50 that approximates it; ≥ and ≤ were set here for values at or beyond the usual limits of such assays
[10] = target: HLA-B*57:01; test: as above
[11] = target: HLA-A*26:01; test: as above
[12] = target: HLA-A*69:01; test: as above
[13] = target: HLA-A*24:03; test: as above
[14] = target: HLA-A*68:02; test: as above; conditions: source organism: Camelpox virus M-96
[15] = target: HLA-A*01:01; test: as above
[16] = target: HLA-B*58:01; test: as above
[17] = target: HLA-A*26:02; test: as above; conditions: source organism: Variola virus
[18] = target: HLA-A*11:01; test: as above
[19] = target: HLA-B*15:01; test: as above
[20] = target: HLA-B*08:02; test: as above; conditions: source organism: Variola virus
[21] = target: HLA-A*31:01; test: as above
[22] = target: HLA-A*26:03; test: as above; conditions: source organism: Variola virus
[23] = target: HLA-A*02:01; test: as above
[24] = target: HLA-B*18:01; test: as above; conditions: source organism: Camelpox virus M-96
[25] = target: HLA-B*08:01; test: IEDB peptide-MHC binding, purified MHC/competitive/fluorescence; filed as Kd, often an IC50 or EC50 that approximates it; ≥ and ≤ were set here for values at or beyond the usual limits of such assays; conditions: source organism: Variola virus
[26] = target: HLA-B*07:02; test: as above; conditions: source organism: Variola virus
[27] = target: HLA-A*02:12; test: IEDB peptide-MHC binding, purified MHC/direct/fluorescence; filed as Kd, often an IC50 or EC50 that approximates it; ≥ and ≤ were set here for values at or beyond the usual limits of such assays
[28] = target: HLA-A*02:50; test: IEDB peptide-MHC binding, purified MHC/competitive/fluorescence; filed as Kd, often an IC50 or EC50 that approximates it; ≥ and ≤ were set here for values at or beyond the usual limits of such assays
[29] = target: HLA-A*01:01; test: IEDB peptide-MHC binding, purified MHC/competitive/fluorescence; ≥ and ≤ were set here for values at or beyond the usual limits of such assays
[30] = target: HLA-A*11:01; test: as above; conditions: source organism: Vaccinia virus Copenhagen
[31] = target: HLA-B*15:01; test: as above; conditions: source organism: Vaccinia virus Copenhagen
[32] = target: HLA-A*03:01; test: as above; conditions: source organism: Vaccinia virus Copenhagen
[33] = target: HLA-A*68:01; test: IEDB peptide-MHC binding, purified MHC/competitive/radioactivity; filed as Kd, often an IC50 or EC50 that approximates it; ≥ and ≤ were set here for values at or beyond the usual limits of such assays; conditions: source organism: Vaccinia virus WR
[34] = target: HLA-A*33:01; test: as above; conditions: source organism: Vaccinia virus WR
[35] = target: HLA-A*31:01; test: as above; conditions: source organism: Vaccinia virus WR
[36] = target: HLA-B*35:01; test: IEDB peptide-MHC binding, purified MHC/competitive/fluorescence; filed as Kd, often an IC50 or EC50 that approximates it; ≥ and ≤ were set here for values at or beyond the usual limits of such assays; conditions: source organism: West Nile virus
[37] = target: HLA-B*51:01; test: as above
[38] = target: HLA-A*24:02; test: IEDB peptide-MHC binding, purified MHC/competitive/fluorescence; ≥ and ≤ were set here for values at or beyond the usual limits of such assays; conditions: source organism: Zaire ebolavirus
[39] = target: HLA-B*44:02; test: IEDB peptide-MHC binding, purified MHC/direct/fluorescence; filed as Kd, often an IC50 or EC50 that approximates it; ≥ and ≤ were set here for values at or beyond the usual limits of such assays; conditions: source organism: Salmonella enterica
[40] = target: HLA-B*08:01; test: as above; conditions: source organism: Salmonella enterica
[41] = target: HLA-B*07:02; test: as above; conditions: source organism: Salmonella enterica
[42] = target: HLA-B*40:01; test: as above; conditions: source organism: Salmonella enterica
[43] = target: HLA-B*27:05; test: as above; conditions: source organism: Salmonella enterica
[44] = target: HLA-A*03:01; test: as above; conditions: source organism: Salmonella enterica
[45] = target: HLA-A*02:01; test: IEDB peptide-MHC binding, purified MHC/competitive/fluorescence; ≥ and ≤ were set here for values at or beyond the usual limits of such assays; conditions: source organism: Zaire ebolavirus
[46] = target: HLA-A*68:02; test: IEDB peptide-MHC binding, purified MHC/competitive/fluorescence; filed as Kd, often an IC50 or EC50 that approximates it; ≥ and ≤ were set here for values at or beyond the usual limits of such assays; conditions: source organism: Entamoeba histolytica HM-1:IMSS
[47] = source organism: Giardia lamblia ATCC 50803
[48] = source organism: Camelpox virus M-96
[49] = source organism: Marburg virus - Musoke, Kenya, 1980
[50] = source organism: Mammarenavirus juninense
[51] = source organism: Vaccinia virus
[52] = source organism: West Nile virus
[53] = source organism: Vibrio vulnificus
[54] = source organism: Vibrio vulnificus CMCP6
[55] = source organism: Zaire ebolavirus
[56] = source organism: Salmonella enterica
[57] = source organism: Salmonella enterica subsp. enterica serovar Typhimurium
[58] = source organism: Burkholderia mallei
[59] = source organism: Burkholderia mallei ATCC 23344

**Q.** Which results are given for FPMIIGSEL?
**A.** Kd [1]: 2.13 µM; Kd [2, 47]: ≥ 20 µM; Kd [3]: ≥ 5 µM; Kd [4]: 0.156 µM; Kd [5]: ≥ 5 µM

**Q.** How did the Kd ([6]; source organism: Mycobacterium tuberculosis variant bovis BCG str. Pasteur 1173P2) turn out when FLLDGGAPF was run?
**A.** ≤ 0.001 µM

**Q.** What about the Kd [7] of the same sequence?
**A.** 0.527 µM

**Q.** What about the Kd [8] of the same sequence?
**A.** 0.0212 µM

**Q.** With IFLIITKVF as the sequence, how does the Kd [9, 48] read?
**A.** ≥ 20 µM

**Q.** And the Kd [10, 48]?
**A.** ≥ 20 µM

**Q.** What about the Kd ([11]; source organism: Variola virus) of the same sequence?
**A.** ≥ 20 µM

**Q.** What about the Kd [12, 48] of the same sequence?
**A.** ≥ 20 µM

**Q.** And the Kd [13, 48]?
**A.** 1.1 µM

**Q.** What about the Kd [14] of the same sequence?
**A.** ≥ 20 µM

**Q.** And the Kd [15, 48]?
**A.** ≥ 20 µM

**Q.** And the Kd [16, 48]?
**A.** ≥ 20 µM

**Q.** What about the Kd [17] of the same sequence?
**A.** ≥ 20 µM

**Q.** What about the Kd [18, 48] of the same sequence?
**A.** ≥ 20 µM

**Q.** What about the Kd [19, 48] of the same sequence?
**A.** ≥ 20 µM

**Q.** And the Kd [20]?
**A.** ≥ 20 µM

**Q.** What about the Kd [21, 48] of the same sequence?
**A.** ≥ 20 µM

**Q.** And the Kd [22]?
**A.** ≥ 20 µM

**Q.** What about the Kd [23, 48] of the same sequence?
**A.** ≥ 20 µM

**Q.** What about the Kd [24] of the same sequence?
**A.** ≥ 20 µM

**Q.** What about the Kd [25] of the same sequence?
**A.** ≥ 20 µM

**Q.** What about the Kd [26] of the same sequence?
**A.** 3 µM

**Q.** Which Kd [12, 49] does the source give for FLLDYEGTL here?
**A.** 0.437 µM

**Q.** What about the Kd ([6]; source organism: Orthomarburgvirus marburgense) of the same sequence?
**A.** ≤ 0.001 µM

**Q.** What about the Kd [23, 49] of the same sequence?
**A.** 0.006 µM

**Q.** Which Kd ([2]; source organism: Vaccinia virus WR) does the source give for KIDDMIEEV here?
**A.** 0.124 µM

**Q.** With RATQPAAEF as the sequence, how does the Kd [16, 50] read?
**A.** 0.0129 µM

**Q.** What about the Kd [2, 50] of the same sequence?
**A.** 1.74 µM

**Q.** How did the Kd ([12]; source organism: Cowpox virus) turn out when TLNHNCINV was run?
**A.** 0.136 µM

**Q.** What about the Kd [27, 51] of the same sequence?
**A.** 0.019 µM

**Q.** What about the Kd ([23]; source organism: Cowpox virus) of the same sequence?
**A.** 0.404 µM

**Q.** What about the Kd [28, 51] of the same sequence?
**A.** 0.0002 µM

**Q.** VTAASPMLY was tested. Which IC50 ([29]; source organism: Vaccinia virus Copenhagen) did it give?
**A.** 1.29 µM

**Q.** And the IC50 [30]?
**A.** 1.17 µM

**Q.** What about the IC50 [31] of the same sequence?
**A.** 4.45 µM

**Q.** And the IC50 [32]?
**A.** 10.5 µM

**Q.** And the Kd [33]?
**A.** 0.861 µM

**Q.** What about the Kd [34] of the same sequence?
**A.** 14.5 µM

**Q.** What about the Kd [35] of the same sequence?
**A.** ≥ 77.9 µM

**Q.** With LAVSAYTPW as the sequence, how does the Kd [9, 52] read?
**A.** 0.005 µM

**Q.** What about the Kd [10, 52] of the same sequence?
**A.** 0.086 µM

**Q.** What about the Kd [6, 52] of the same sequence?
**A.** ≤ 0.001 µM

**Q.** And the Kd [36]?
**A.** 0.0057 µM

**Q.** What about the Kd [37, 52] of the same sequence?
**A.** ≥ 20 µM

**Q.** Which results are given for KLTSYSAGL?
**A.** Kd [12, 53]: 15.1 µM; Kd [27, 54]: 0.007 µM; Kd [23, 53]: 0.021 µM; Kd [28, 54]: ≤ 0.0001 µM

**Q.** How did the IC50 [38] turn out when EIDTTIGEW was run?
**A.** ≥ 81.7 µM

**Q.** And the IC50 [29, 55]?
**A.** ≥ 494 µM

**Q.** LLQGVPFHV was tested. Which Kd [11, 56] did it give?
**A.** ≥ 20 µM

**Q.** What about the Kd [12, 57] of the same sequence?
**A.** 0.289 µM

**Q.** What about the Kd [13, 56] of the same sequence?
**A.** ≥ 20 µM

**Q.** What about the Kd [39] of the same sequence?
**A.** ≥ 20 µM

**Q.** And the Kd [40]?
**A.** ≥ 20 µM

**Q.** What about the Kd [15, 56] of the same sequence?
**A.** ≥ 20 µM

**Q.** And the Kd [16, 56]?
**A.** ≥ 20 µM

**Q.** What about the Kd [41] of the same sequence?
**A.** ≥ 20 µM

**Q.** And the Kd [18, 56]?
**A.** ≥ 20 µM

**Q.** And the Kd [19, 56]?
**A.** ≥ 20 µM

**Q.** And the Kd [21, 57]?
**A.** 1.81 µM

**Q.** And the Kd [42]?
**A.** ≥ 20 µM

**Q.** And the Kd [43]?
**A.** ≥ 20 µM

**Q.** What about the Kd [23, 57] of the same sequence?
**A.** 0.109 µM

**Q.** And the Kd [44]?
**A.** ≥ 20 µM

**Q.** And the Kd ([28]; source organism: Salmonella enterica subsp. enterica serovar Paratyphi B str. SPB7)?
**A.** ≤ 0.0001 µM

**Q.** LFEVDNLTY was tested. Which IC50 [38] did it give?
**A.** 66.5 µM

**Q.** What about the IC50 [29, 55] of the same sequence?
**A.** 69.1 µM

**Q.** What about the IC50 [45] of the same sequence?
**A.** ≥ 210 µM

**Q.** MPVSIPTPI was tested. Which Kd [2, 47] did it give?
**A.** ≥ 20 µM

**Q.** What about the Kd [37, 47] of the same sequence?
**A.** 0.34 µM

**Q.** YLACKQHAL was tested. Which Kd [12, 58] did it give?
**A.** 0.291 µM

**Q.** And the Kd [6, 59]?
**A.** 0.024 µM

**Q.** What about the Kd [23, 58] of the same sequence?
**A.** 0.0625 µM

**Q.** And the Kd [28, 59]?
**A.** ≤ 0.0001 µM

**Q.** With MVPKSFTYS as the sequence, how does the Kd [46] read?
**A.** 0.0762 µM
